Test results: US9688764B2, “Methods of treating breast cancer by administering anti-human prolactin receptor (PRLR) antibodies” (REGENERON PHARMACEUTICALS, INC., priority 2013, dated 2017)

System: T47D#11 tumors
Experiment: Tumor growth inhibition in xenograft-bearing mice
Format: in vivo, CB17 SCID mice
Conditions: multi-dose, 5 and 15 mg/kg
Source text: Briefly, 20×10^6 MCF7/PRLR cells (ATCC HTB-22 transfected with full length hPRLR as previously described) were implanted subcutaneously into the left mammary fat pad of female NCr nude mice. In other studies, 10×10^6 PC3/PRLR (ATCC CRL-1435 transfected with full length hPRLR as previously described) were implanted subcutaneously into the left flank of male SCID mice. Additionally, 10×10^6 parental T47D (ATCC HTB-133) or […] T47D#11 cells (ATCC HTB-133 serially passaged in vivo as described below) were subcutaneously implanted into the left flank of female CB17 SCID mice. All mice were obtained from Taconic (Hudson, N.Y.). Each bolus of cells was supplemented with a 90-day estrogen release pellet (1.7 mg/pellet; Innovative Research America, Sarasota Fla.). Once tumors had reached an average volume of 250 mm^3, mice were randomized into groups of seven and dosed with anti-PRLR antibody-drug conjugates of the invention or control reagents. Control reagents included PBS vehicle, free methyl-disulfide DM1 (DM1-SMe) and isotype Control 1-DM1.
In multi-dose studies, mice were dosed once a week for a total of three weeks with tumor volumes and body weights being monitored twice weekly throughout the study. Test ADCs were dosed at 5 and/or 15 mg/kg in the multi-dose studies. In single-dose studies, mice received a single dose of test ADC, and tumor volumes and body weights were monitored twice weekly throughout the study. Test ADCs were dosed at 1, 2.5, 5, and 15 mg/kg in the single-dose studies. Average tumor size as well as tumor growth inhibition relative to the vehicle treated group were calculated for each group. Tumors were measured with calipers twice a week until the average size of the vehicle group reached 1000 mm^3. Tumor size was calculated using the formula (length×width^2)/2. Tumor growth inhibition was calculated according to the following formula: (1−((Tfinal−Tinitial)/(Cfinal−Cinitial)))*100, where T (treated group) and C (control group) represent the mean tumor mass on the day the vehicle group reached 1000 mm^3. […] Results are summarized in Tables 21-25 (multi-dose) and Table 26 (single dose). (NT=not tested in the particular experiment shown).

B1: H1H6958N2-DM1: anti-PRLR antibody H1H6958N2 conjugated to DM1 through an SMCC linker (conjugate)
VH: QVQLVESGGGVVQPGRSLRLSCGASGFTFRNYGMQWVRQGPGKGLEWVTLISFDGNDKYYADSVKGRFTISRDNSKNTLFLQMNSLRTEDTAVYYCARGGDFDYWGQGTLVTVSS
VL: DIQMTQSPSSLSASVGDRVTITCRASQDIRKDLGWYQQKPGKAPKRLIYAASSLHSGVPSRFSGSGSGTEFTLTISSLQPEDFATYYCLQHNSYPMYTFGQGTKLEIK
  effect on T47D#11 tumor growth: potently inhibited tumor growth
